Results published in paper PMC9482650, “Quantitative fragmentomics allow affinity mapping of interactomes” (Nature Communications, 2022).

T1: APBA2_2, Q99767
T1 sequence (Q99767 654-744, limits assumed, looked up): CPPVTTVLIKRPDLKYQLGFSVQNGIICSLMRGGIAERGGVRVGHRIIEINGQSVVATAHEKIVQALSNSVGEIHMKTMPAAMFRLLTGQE

T2: GRIP1_3, Q9Y3R0
T2 sequence (Q9Y3R0 247-346, limits assumed, looked up): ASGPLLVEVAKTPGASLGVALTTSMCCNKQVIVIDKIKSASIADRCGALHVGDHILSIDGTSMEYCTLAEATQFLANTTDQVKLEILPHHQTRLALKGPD

T3: HTRA4, P83105
T3 sequence (P83105 378-476, limits assumed, looked up): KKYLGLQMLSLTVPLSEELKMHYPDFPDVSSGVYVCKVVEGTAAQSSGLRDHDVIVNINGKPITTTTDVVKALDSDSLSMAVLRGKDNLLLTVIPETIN

T4: LNX2_3, Q8N448
T4 sequence (Q8N448 463-564, limits assumed, looked up): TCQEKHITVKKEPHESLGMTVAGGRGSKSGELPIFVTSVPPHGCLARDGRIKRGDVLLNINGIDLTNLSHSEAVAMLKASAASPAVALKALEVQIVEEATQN

T5: LRRC7, Q96NW7
T5 sequence (Q96NW7 1440-1537, limits assumed, looked up): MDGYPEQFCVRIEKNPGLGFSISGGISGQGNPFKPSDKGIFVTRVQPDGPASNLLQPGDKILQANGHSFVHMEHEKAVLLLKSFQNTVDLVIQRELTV

T6: MPDZ_5, O75970
T6 sequence (O75970 695-796, limits assumed, looked up): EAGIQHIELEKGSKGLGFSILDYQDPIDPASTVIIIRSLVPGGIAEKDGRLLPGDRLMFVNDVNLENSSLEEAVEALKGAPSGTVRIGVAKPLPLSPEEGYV

T7: MPP6, Q9NZW5
T7 sequence (Q9NZW5 125-219, limits assumed, looked up): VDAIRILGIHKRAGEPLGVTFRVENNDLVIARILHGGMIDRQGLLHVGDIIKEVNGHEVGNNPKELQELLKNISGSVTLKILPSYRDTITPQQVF

T8: RAPGEF6, Q8TEU7
T8 sequence (Q8TEU7 525-625, limits assumed, looked up): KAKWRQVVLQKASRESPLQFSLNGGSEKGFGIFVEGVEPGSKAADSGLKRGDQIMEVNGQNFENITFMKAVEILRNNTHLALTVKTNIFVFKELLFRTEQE

T9: SIPA1L2, Q9P2F8
T9 sequence (Q9P2F8 945-1036, limits assumed, looked up): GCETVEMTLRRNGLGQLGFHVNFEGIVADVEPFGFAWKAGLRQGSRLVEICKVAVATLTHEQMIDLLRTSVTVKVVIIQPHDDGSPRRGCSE

T10: SNTB1, Q13884
T10 sequence (Q13884 107-205, limits assumed, looked up): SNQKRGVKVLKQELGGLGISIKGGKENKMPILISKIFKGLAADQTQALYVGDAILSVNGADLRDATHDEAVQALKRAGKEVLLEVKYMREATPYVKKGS

T11: TIAM2, Q8IVF5
T11 sequence (Q8IVF5 885-986, limits assumed, looked up): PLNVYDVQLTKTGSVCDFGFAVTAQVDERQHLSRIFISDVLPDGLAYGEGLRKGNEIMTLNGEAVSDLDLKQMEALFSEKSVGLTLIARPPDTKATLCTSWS

B1: SLC6A3, Q01959 (peptide)
chain: QFTLRHWLKV
B2: CLDN19, Q8N6F1 (peptide)
chain: PASAKGPLGV
B3: PPFIA1, Q13136 (peptide)
chain: DSATVRTYSC
B4: AKAP10, O43572 (peptide)
chain: DQPLEKSTKL
B5: MARCHF4, Q9P2E8 (peptide)
chain: RELVMRVTTV

Assays:
Assay in all cases: holdup assay
Set-up in all cases: key: below the threshold = too weak to quantify, mostly under pKd 3.1 to 4
Settings in all cases: plain residues with an end cap or a label only (N-terminal biotin on a linker: ado-ado)
APBA2_2, Q99767 = molecular target: T1, APBA2_2, Q99767
DLG1_1, Q12959 = molecular target: DLG1_1, Q12959
DLG4_1, P78352 = molecular target: DLG4_1, P78352
DLG4_3, P78352 = molecular target: DLG4_3, P78352
FRMPD2_1, Q68DX3 = molecular target: FRMPD2_1, Q68DX3
FRMPD2_2, Q68DX3 = molecular target: FRMPD2_2, Q68DX3
GRIP1_3, Q9Y3R0 = molecular target: T2, GRIP1_3, Q9Y3R0
GRIP2_5, Q9C0E4 = molecular target: GRIP2_5, Q9C0E4
HTRA1, Q92743 = molecular target: HTRA1, Q92743
HTRA4, P83105 = molecular target: T3, HTRA4, P83105
IL16_1, Q14005 = molecular target: IL16_1, Q14005
LDB3, O75112 = molecular target: LDB3, O75112
LNX2_3, Q8N448 = molecular target: T4, LNX2_3, Q8N448
LRRC7, Q96NW7 = molecular target: T5, LRRC7, Q96NW7
MAGI2_2, Q86UL8 = molecular target: MAGI2_2, Q86UL8
MAGI2_3, Q86UL8 = molecular target: MAGI2_3, Q86UL8
MAST1, Q9Y2H9 = molecular target: MAST1, Q9Y2H9
MPDZ_5, O75970 = molecular target: T6, MPDZ_5, O75970
MPP6, Q9NZW5 = molecular target: T7, MPP6, Q9NZW5
NHERF2_2, Q15599 = molecular target: NHERF2_2, Q15599
PDLIM1, O00151 = molecular target: PDLIM1, O00151
PICK1, Q9NRD5 = molecular target: PICK1, Q9NRD5
PTPN3, P26045 = molecular target: PTPN3, P26045
RAPGEF6, Q8TEU7 = molecular target: T8, RAPGEF6, Q8TEU7
SIPA1L2, Q9P2F8 = molecular target: T9, SIPA1L2, Q9P2F8
SNTB1, Q13884 = molecular target: T10, SNTB1, Q13884
TIAM2, Q8IVF5 = molecular target: T11, TIAM2, Q8IVF5

IL16_1, Q14005, sequence (Q14005 210-306): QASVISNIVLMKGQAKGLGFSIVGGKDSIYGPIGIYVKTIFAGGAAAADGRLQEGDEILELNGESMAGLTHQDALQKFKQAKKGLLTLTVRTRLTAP
MAST1, Q9Y2H9, sequence (Q9Y2H9 962-1065): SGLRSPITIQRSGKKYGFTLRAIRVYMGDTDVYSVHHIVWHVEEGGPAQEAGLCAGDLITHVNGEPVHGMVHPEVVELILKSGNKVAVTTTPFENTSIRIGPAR
NHERF2_2, Q15599, sequence (Q15599 142-238): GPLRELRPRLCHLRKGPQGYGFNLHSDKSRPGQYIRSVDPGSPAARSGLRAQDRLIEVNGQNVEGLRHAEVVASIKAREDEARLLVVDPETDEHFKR
DLG4_3, P78352, sequence (P78352 306-403): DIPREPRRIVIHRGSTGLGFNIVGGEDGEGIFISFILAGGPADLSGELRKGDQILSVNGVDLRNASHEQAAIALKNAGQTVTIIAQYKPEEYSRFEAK
PDLIM1, O00151, sequence (O00151 1-87): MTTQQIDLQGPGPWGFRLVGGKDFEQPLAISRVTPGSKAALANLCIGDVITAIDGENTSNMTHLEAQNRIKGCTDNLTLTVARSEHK
MAGI2_3, Q86UL8, sequence (Q86UL8 600-682): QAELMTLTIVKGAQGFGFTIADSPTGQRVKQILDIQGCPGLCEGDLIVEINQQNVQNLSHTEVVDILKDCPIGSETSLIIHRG
GRIP2_5, Q9C0E4, sequence (Q9C0E4 544-642): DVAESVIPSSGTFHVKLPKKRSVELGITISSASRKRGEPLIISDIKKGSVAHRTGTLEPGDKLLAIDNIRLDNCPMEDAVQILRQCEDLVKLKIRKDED
LDB3, O75112, sequence (O75112 1-94): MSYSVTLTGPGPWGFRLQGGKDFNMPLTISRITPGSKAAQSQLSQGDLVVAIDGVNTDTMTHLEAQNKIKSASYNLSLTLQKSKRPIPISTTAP
FRMPD2_2, Q68DX3, sequence (Q68DX3 944-1038): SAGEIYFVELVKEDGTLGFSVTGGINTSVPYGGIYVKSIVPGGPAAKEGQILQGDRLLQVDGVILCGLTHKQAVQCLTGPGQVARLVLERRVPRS
PTPN3, P26045, sequence (P26045 505-587): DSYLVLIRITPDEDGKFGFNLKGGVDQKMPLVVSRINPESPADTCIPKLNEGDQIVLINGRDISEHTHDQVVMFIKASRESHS
HTRA1, Q92743, sequence (Q92743 360-477): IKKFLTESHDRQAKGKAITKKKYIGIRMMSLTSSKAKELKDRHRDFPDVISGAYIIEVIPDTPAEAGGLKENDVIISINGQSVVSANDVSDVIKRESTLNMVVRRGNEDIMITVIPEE
DLG4_1, P78352, sequence (P78352 62-152): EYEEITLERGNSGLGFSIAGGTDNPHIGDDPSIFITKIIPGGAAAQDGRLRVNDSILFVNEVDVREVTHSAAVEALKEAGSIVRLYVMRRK
PICK1, Q9NRD5, sequence (Q9NRD5 17-115): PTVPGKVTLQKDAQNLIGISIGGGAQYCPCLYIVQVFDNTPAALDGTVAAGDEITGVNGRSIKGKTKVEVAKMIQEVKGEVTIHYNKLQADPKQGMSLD
FRMPD2_1, Q68DX3, sequence (Q68DX3 770-861): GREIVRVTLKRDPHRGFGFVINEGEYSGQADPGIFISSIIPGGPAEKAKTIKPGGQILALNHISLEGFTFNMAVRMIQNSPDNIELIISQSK
MAGI2_2, Q86UL8, sequence (Q86UL8 410-522): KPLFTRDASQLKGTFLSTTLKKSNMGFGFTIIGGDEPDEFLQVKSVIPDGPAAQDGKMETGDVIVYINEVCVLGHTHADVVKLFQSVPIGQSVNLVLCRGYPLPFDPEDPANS

Row | Binder | pKd (APBA2_2, Q99767) | pKd (DLG1_1, Q12959) | pKd (DLG4_1, P78352) | pKd (DLG4_3, P78352) | pKd (FRMPD2_1, Q68DX3) | pKd (FRMPD2_2, Q68DX3) | pKd (GRIP1_3, Q9Y3R0) | pKd (GRIP2_5, Q9C0E4) | pKd (HTRA1, Q92743) | pKd (HTRA4, P83105) | pKd (IL16_1, Q14005) | pKd (LDB3, O75112) | pKd (LNX2_3, Q8N448) | pKd (LRRC7, Q96NW7) | pKd (MAGI2_2, Q86UL8) | pKd (MAGI2_3, Q86UL8) | pKd (MAST1, Q9Y2H9) | pKd (MPDZ_5, O75970) | pKd (MPP6, Q9NZW5) | pKd (NHERF2_2, Q15599) | further results
1 | B1 | below the threshold | below the threshold | below the threshold | below the threshold | 3.71 | below the threshold | below the threshold | below the threshold | 4.45 | 4.1 | below the threshold | below the threshold | below the threshold | below the threshold | 3.68 | below the threshold | 4.24 | below the threshold | below the threshold | below the threshold | pKd (PDLIM1, O00151): below the threshold; pKd (PICK1, Q9NRD5): 3.69; pKd (PTPN3, P26045): below the threshold; pKd (RAPGEF6, Q8TEU7): below the threshold; pKd (SIPA1L2, Q9P2F8): 3.89; pKd (SNTB1, Q13884): below the threshold; pKd (TIAM2, Q8IVF5): 4.46
2 | B2 | below the threshold | below the threshold | below the threshold | below the threshold | below the threshold | below the threshold | below the threshold | below the threshold | below the threshold | below the threshold | below the threshold | below the threshold | below the threshold | below the threshold | below the threshold | below the threshold | 3.69 | below the threshold | below the threshold | below the threshold | pKd (PDLIM1, O00151): below the threshold; pKd (PICK1, Q9NRD5): below the threshold; pKd (PTPN3, P26045): below the threshold; pKd (RAPGEF6, Q8TEU7): below the threshold; pKd (SIPA1L2, Q9P2F8): below the threshold; pKd (SNTB1, Q13884): below the threshold; pKd (TIAM2, Q8IVF5): below the threshold
3 | B3 | below the threshold | below the threshold | below the threshold | below the threshold | 4.49 | below the threshold | below the threshold | below the threshold | 4.27 | below the threshold | below the threshold | below the threshold | below the threshold | below the threshold | below the threshold | below the threshold | below the threshold | below the threshold | below the threshold | below the threshold | pKd (PDLIM1, O00151): below the threshold; pKd (PICK1, Q9NRD5): 4.15; pKd (PTPN3, P26045): 3.68; pKd (RAPGEF6, Q8TEU7): below the threshold; pKd (SIPA1L2, Q9P2F8): below the threshold; pKd (SNTB1, Q13884): below the threshold; pKd (TIAM2, Q8IVF5): 4.19
4 | B4 | below the threshold | below the threshold | below the threshold | below the threshold | below the threshold | below the threshold | below the threshold | below the threshold | below the threshold | below the threshold | below the threshold | below the threshold | below the threshold | below the threshold | below the threshold | below the threshold | 4.55 | below the threshold | below the threshold | 5.02 | pKd (PDLIM1, O00151): below the threshold; pKd (PICK1, Q9NRD5): below the threshold; pKd (PTPN3, P26045): 4.62; pKd (RAPGEF6, Q8TEU7): below the threshold; pKd (SIPA1L2, Q9P2F8): below the threshold; pKd (SNTB1, Q13884): 3.99; pKd (TIAM2, Q8IVF5): 4.04
5 | B5 | below the threshold | 5.19 | 5.03 | 4.87 | 3.48 | 4.06 | below the threshold | below the threshold | 4.96 | 4.74 | 4.33 | below the threshold | below the threshold | 3.6 | 5.12 | 4.56 | 4.61 | below the threshold | 3.59 | below the threshold | pKd (PDLIM1, O00151): below the threshold; pKd (PICK1, Q9NRD5): below the threshold; pKd (PTPN3, P26045): 4.54; pKd (RAPGEF6, Q8TEU7): below the threshold; pKd (SIPA1L2, Q9P2F8): below the threshold; pKd (SNTB1, Q13884): 5.11; pKd (TIAM2, Q8IVF5): 3.76
